Experimental findings from the supplement of paper PMC7125110 are described below.

± gives the standard error. Variants at the floor of the assay were thinned out. Where only a bound is given, the exact number is not on record here.

B1: glmS ribozyme (parent)
chain: AUAAAAGCGCCAGAACUACAGAAAUGUAGUUGACGAGGAGGAGGUUUAUCGAAUUUUCGGCGGAUGCCUCCAAA

Conditions in all cases: with glucosamine-6-phosphate
The variants in data set [1] derive from B1. Description: self-cleavage kobs at 40 uM GlcN6P; higher = faster cleavage; RNA array. The procedure, abridged: (§1)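 Tiles bearing barcoded ribozyme variants, transcribed in situ by E. coli RNA polymerase on sequenced MiSeq chips, were imaged over ~14 h at 37 °C using a hybridised Cy3 probe. Glucosamine-6-phosphate was supplied at 40 μM to 10 mM in HEPES/KCl/Mg(OAc)2 buffer. kobs came from one- or two-exponential decay fits to normalised per-tile medians, and weighted Michaelis–Menten fits then provided kcat and KM.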

Variants of B1 are the subject of data set [2]. The data set is described as follows: self-cleavage kobs at 160 uM GlcN6P; higher = faster cleavage; RNA array. Put shortly:
as §1

Data set [3] covers variants of B1. The data set is described as follows: self-cleavage kobs at 640 uM GlcN6P; higher = faster cleavage; RNA array. Put shortly:
as §1

In data set [4] the parent is B1. The data set is described as follows: self-cleavage kobs at 2500 uM GlcN6P; higher = faster cleavage; RNA array. The procedure, abridged:
as §1

Variants of B1 are the subject of data set [5]. Description: self-cleavage kobs at 10000 uM GlcN6P; higher = faster cleavage; RNA array. Put shortly:
as §1

For the variant G7U G9U, the “self-cleavage kobs at 40 uM GlcN6P” value with glucosamine-6-phosphate [1] was under 1e-05 s⁻¹. For the same variant, the “self-cleavage kobs at 160 uM GlcN6P” value in the data set with glucosamine-6-phosphate [2] is under 1e-05 s⁻¹. For the same variant, the “self-cleavage kobs at 640 uM GlcN6P” value in the data set with glucosamine-6-phosphate [3] is under 1e-05 s⁻¹. Further, the “self-cleavage kobs at 2500 uM GlcN6P” value with glucosamine-6-phosphate [4] is under 1e-05 s⁻¹. The “self-cleavage kobs at 10000 uM GlcN6P” value in the data set with glucosamine-6-phosphate [5] is under 1e-05 s⁻¹.
For G38U U54G, the “self-cleavage kobs at 40 uM GlcN6P” value with glucosamine-6-phosphate [1] is under 1e-05 s⁻¹.
In the case of G43A G59C, in the data set with glucosamine-6-phosphate [1], the “self-cleavage kobs at 40 uM GlcN6P” value is under 1e-05 s⁻¹. In addition, in the data set with glucosamine-6-phosphate [2], the “self-cleavage kobs at 160 uM GlcN6P” value is under 1e-05 s⁻¹. In addition, in the data set with glucosamine-6-phosphate [3], the “self-cleavage kobs at 640 uM GlcN6P” value is under 1e-05 s⁻¹. For the same variant, in the data set with glucosamine-6-phosphate [5], the “self-cleavage kobs at 10000 uM GlcN6P” value is under 1e-05 s⁻¹.
With G7C U55G, in the data set with glucosamine-6-phosphate [1], the “self-cleavage kobs at 40 uM GlcN6P” value was under 1e-05 s⁻¹. Besides, the “self-cleavage kobs at 10000 uM GlcN6P” value with glucosamine-6-phosphate [5] is under 1e-05 s⁻¹.
In the case of C10A G38C G60U C71U, the “self-cleavage kobs at 40 uM GlcN6P” value with glucosamine-6-phosphate [1] was under 1e-05 s⁻¹.
Same read-out and setting: the result for A12G G35U C50U reads under 1e-05 s⁻¹.
For the variant A15U G62U, the “self-cleavage kobs at 40 uM GlcN6P” value in the data set with glucosamine-6-phosphate [1] is under 1e-05 s⁻¹. Further, the “self-cleavage kobs at 640 uM GlcN6P” value with glucosamine-6-phosphate [3] was under 1e-05 s⁻¹. The “self-cleavage kobs at 2500 uM GlcN6P” value with glucosamine-6-phosphate [4] was under 1e-05 s⁻¹. For the same variant, in the data set with glucosamine-6-phosphate [5], the “self-cleavage kobs at 10000 uM GlcN6P” value is under 1e-05 s⁻¹.
G38U A42C A53U: the “self-cleavage kobs at 40 uM GlcN6P” value with glucosamine-6-phosphate [1] was under 1e-05 s⁻¹.
Regarding U57G G62A, in the data set with glucosamine-6-phosphate [1], the “self-cleavage kobs at 40 uM GlcN6P” value was under 1e-05 s⁻¹. Also, in the data set with glucosamine-6-phosphate [5], the “self-cleavage kobs at 10000 uM GlcN6P” value is under 1e-05 s⁻¹.
A6U G38U C71A: the “self-cleavage kobs at 40 uM GlcN6P” value with glucosamine-6-phosphate [1] was under 1e-05 s⁻¹.
Turning to C34G C50A, the “self-cleavage kobs at 40 uM GlcN6P” value in the data set with glucosamine-6-phosphate [1] is under 1e-05 s⁻¹. In the data set with glucosamine-6-phosphate [3], the “self-cleavage kobs at 640 uM GlcN6P” value is under 1e-05 s⁻¹.
As for C34A G51A, the “self-cleavage kobs at 40 uM GlcN6P” value in the data set with glucosamine-6-phosphate [1] was under 1e-05 s⁻¹. Moreover, in the data set with glucosamine-6-phosphate [2], the “self-cleavage kobs at 160 uM GlcN6P” value was under 1e-05 s⁻¹. In addition, the “self-cleavage kobs at 2500 uM GlcN6P” value in the data set with glucosamine-6-phosphate [4] was under 1e-05 s⁻¹.
G32U A52C U55G C61U: the “self-cleavage kobs at 40 uM GlcN6P” value with glucosamine-6-phosphate [1] is under 1e-05 s⁻¹. For the same variant, the “self-cleavage kobs at 10000 uM GlcN6P” value with glucosamine-6-phosphate [5] is under 1e-05 s⁻¹.
In the case of G13U G38A A39U, in the data set with glucosamine-6-phosphate [1], the “self-cleavage kobs at 40 uM GlcN6P” value is under 1e-05 s⁻¹.
Still for that read-out and setting: to C61U C67A C70U belongs 4.32e-05 ± 1.7e-05 s⁻¹.
Take G35C C50U G51C: the “self-cleavage kobs at 40 uM GlcN6P” value in the data set with glucosamine-6-phosphate [1] was under 1e-05 s⁻¹. For the same variant, in the data set with glucosamine-6-phosphate [2], the “self-cleavage kobs at 160 uM GlcN6P” value was under 1e-05 s⁻¹. Also, the “self-cleavage kobs at 640 uM GlcN6P” value with glucosamine-6-phosphate [3] was under 1e-05 s⁻¹. The “self-cleavage kobs at 2500 uM GlcN6P” value with glucosamine-6-phosphate [4] is under 1e-05 s⁻¹. Besides, the “self-cleavage kobs at 10000 uM GlcN6P” value with glucosamine-6-phosphate [5] was under 1e-05 s⁻¹.
For the variant C8G C70A, the “self-cleavage kobs at 40 uM GlcN6P” value in the data set with glucosamine-6-phosphate [1] was under 1e-05 s⁻¹. The “self-cleavage kobs at 2500 uM GlcN6P” value with glucosamine-6-phosphate [4] is under 1e-05 s⁻¹. For the same variant, the “self-cleavage kobs at 10000 uM GlcN6P” value with glucosamine-6-phosphate [5] is under 1e-05 s⁻¹.
Turning to A15C G37U G40C U55G U65C U69C, in the data set with glucosamine-6-phosphate [1], the “self-cleavage kobs at 40 uM GlcN6P” value was under 1e-05 s⁻¹.
Regarding G44U A48U, in the data set with glucosamine-6-phosphate [1], the “self-cleavage kobs at 40 uM GlcN6P” value is under 1e-05 s⁻¹. The “self-cleavage kobs at 160 uM GlcN6P” value with glucosamine-6-phosphate [2] is under 1e-05 s⁻¹. For the same variant, in the data set with glucosamine-6-phosphate [3], the “self-cleavage kobs at 640 uM GlcN6P” value is under 1e-05 s⁻¹. Also, the “self-cleavage kobs at 2500 uM GlcN6P” value with glucosamine-6-phosphate [4] is under 1e-05 s⁻¹.
Take A33C G41C U47C A53G U54C U65G C70U: the “self-cleavage kobs at 40 uM GlcN6P” value in the data set with glucosamine-6-phosphate [1] is under 1e-05 s⁻¹. In the data set with glucosamine-6-phosphate [5], the “self-cleavage kobs at 10000 uM GlcN6P” value was under 1e-05 s⁻¹.
As to A6U G38A, the “self-cleavage kobs at 40 uM GlcN6P” value with glucosamine-6-phosphate [1] was under 1e-05 s⁻¹.
Take C8A U46A: in the data set with glucosamine-6-phosphate [1], the “self-cleavage kobs at 40 uM GlcN6P” value is under 1e-05 s⁻¹. Further, the “self-cleavage kobs at 160 uM GlcN6P” value in the data set with glucosamine-6-phosphate [2] is under 1e-05 s⁻¹. Moreover, the “self-cleavage kobs at 640 uM GlcN6P” value with glucosamine-6-phosphate [3] was under 1e-05 s⁻¹. Besides, in the data set with glucosamine-6-phosphate [4], the “self-cleavage kobs at 2500 uM GlcN6P” value is under 1e-05 s⁻¹. For the same variant, the “self-cleavage kobs at 10000 uM GlcN6P” value in the data set with glucosamine-6-phosphate [5] is under 1e-05 s⁻¹.
For the variant A15U G32U A33U, in the data set with glucosamine-6-phosphate [1], the “self-cleavage kobs at 40 uM GlcN6P” value was under 1e-05 s⁻¹.
For G37C G44U, the “self-cleavage kobs at 40 uM GlcN6P” value with glucosamine-6-phosphate [1] is under 1e-05 s⁻¹. The “self-cleavage kobs at 640 uM GlcN6P” value with glucosamine-6-phosphate [3] is under 1e-05 s⁻¹.
For U31G U55G, in the data set with glucosamine-6-phosphate [1], the “self-cleavage kobs at 40 uM GlcN6P” value was 0.000486 ± 0.0001 s⁻¹. Moreover, the “self-cleavage kobs at 160 uM GlcN6P” value with glucosamine-6-phosphate [2] was 0.000859 ± 0.00014 s⁻¹. The “self-cleavage kobs at 640 uM GlcN6P” value with glucosamine-6-phosphate [3] turned out to be 0.00296 ± 0.00071 s⁻¹. The “self-cleavage kobs at 2500 uM GlcN6P” value with glucosamine-6-phosphate [4] worked out at 0.0116 ± 0.0027 s⁻¹. In the data set with glucosamine-6-phosphate [5], the “self-cleavage kobs at 10000 uM GlcN6P” value stood at 0.0152 ± 0.0067 s⁻¹.
On to C11G U55G, for which the “self-cleavage kobs at 40 uM GlcN6P” value in the data set with glucosamine-6-phosphate [1] is under 1e-05 s⁻¹. For the same variant, in the data set with glucosamine-6-phosphate [2], the “self-cleavage kobs at 160 uM GlcN6P” value is under 1e-05 s⁻¹.
Take G40C G44A: the “self-cleavage kobs at 40 uM GlcN6P” value with glucosamine-6-phosphate [1] is under 1e-05 s⁻¹. In the data set with glucosamine-6-phosphate [2], the “self-cleavage kobs at 160 uM GlcN6P” value is under 1e-05 s⁻¹. The “self-cleavage kobs at 640 uM GlcN6P” value with glucosamine-6-phosphate [3] was under 1e-05 s⁻¹. Further, the “self-cleavage kobs at 2500 uM GlcN6P” value with glucosamine-6-phosphate [4] was under 1e-05 s⁻¹.
